Data set [1] deals with the molecule itself. The data set can be described thus: molecular brightness from raster image correlation spectroscopy (RICS); live HEK293 cells, confocal, 37 °C, bottom membrane; clusters masked out by intensity thresholding; brightness of eGFP compared with eGFP5 and Lyn-eGFP references.
Data set [2] addresses GlyR-α3K-mCherry (glycine receptor α3 subunit, short splice variant K, N-terminally tagged with mCherry) (mouse). The data set can be described thus: subunit counting by stepwise photobleaching (TIRF microscopy); fixed HEK293 cells with low copy number expression (50 ng GlyR-α3L-eGFP, 0-500 ng GlyR-α3K-mCherry); eGFP bleaching steps per diffraction-limited spot, step histogram fitted with binomial models; room temperature.

B1: GlyR-α3L-eGFP (glycine receptor α3 subunit, long splice variant L, N-terminally tagged with eGFP) (receptor, mouse, UniProt Q91XP5 34-464, looked up)
chain: ARSRSAPMSPSDFLDKLMGRTSGYDARIRPNFKGPPVNVTCNIFINSFGSIAETTMDYRVNIFLRQKWNDPRLAYSEYPDDSLDLDPSMLDSIWKPDLFFANEKGANFHEVTTDNKLLRIFKNGNVLYSIRLTLTLSCPMDLKNFPMDVQTCIMQLESFGYTMNDLIFEWQDEAPVQVAEGLTLPQFLLKEEKDLRYCTKHYNTGKFTCIEVRFHLERQMGYYLIQMYIPSLLIVILSWVSFWINMDAAPARVALGITTVLTMTTQSSGSRASLPKVSYVKAIDIWMAVCLLFVFSALLEYAAVNFVSRQHKELLRFRRKRKNKTEAFALEKFYRFSDTDDEVRESRFSFTAYGMGPCLQAKDGVVPKGPNHAVQVMPKSPDEMRKVFIDRAKKIDTISRACFPLAFLIFNIFYWVIYKILRHEDIHQQQD
notes: Glycine receptor subunit alpha-3, mouse, splice variant L (464 residues); The receptor assembles as a pentamer; the molecule here is the subunit; also called L variant; GlyR-α3L-FP; source: HEK293, transiently transfected (calcium phosphate; truncated CMV promoter), in the membrane of live or fixed cells; not shown: eGFP, N-terminal, kept
Turning to B1, the stoichiometry N (in general, the number of molecules, sites or subunits per partner or assembly) in data set [1] came to 5. In data set [2], the heteropentameric fraction (2nd order binomial fit) amounted to 23%, the heteropentameric fraction (3rd order binomial fit) is 36% and the heteropentameric fraction (4th order binomial fit) worked out at 67%.

The values are drawn from publication PMC9534812, “Hetero-pentamerization determines mobility and conductance of Glycine receptor α3 splice variants” (Cellular and Molecular Life Sciences, 2022).
